In patent publication US20140056903A1 (Regeneron, published 2014):

B1: H4H2236N3 (antibody, human IgG4, V domains shown)
VH: EVQLLESGGNLVQPGGSLRLSCAASGFTFSSYAMTWVRQAPGKGLEWVSTISGSGTSTYYADSVKGRFTISRDNSRDTVFLQMNSLRAEDTAVYYCSKPSALRFLHWLAMDVWGQGTLVTVSS
VL: DIQMTQSPSSLSAFVGDRVTITCRASQDIRNYLDWFQQKPGKAPKSLIYAASNLQSGVPSRFGGSGSGTDFTLTINSLQPEDFVTYYCQQYNSYPPTFGGGTKVEIK
notes: human IgG4 Fc (H4H)
B2: H4H2291S (antibody, human IgG4, V domains shown)
VH: EVQLVESGGGLVQPGESLRLSCAASGFTFSNYAMSWVRQAPGKGLEWVSVISGSGGSTYYADSVKGRFTMSRDNSKNTLYLQMNSLRAEDTAVYYCAKPPSRAARYFNYGMDVWGQGTTVTVSS
VL: AIRMTQSPSSVSASVGDRVTITCRASQGISSWLAWYQQKPGKAPKLLIYAASSLQSGVPSRFSGSGSGTDFTLTISSLQPEDFATYYCQQANSFPFTFGGGTKVEIK
notes: human IgG4 Fc (H4H)
B3: H4H2295S (antibody, human IgG4, V domains shown)
VH: EVQLVESGGGLVQAGGSLRLSCVASGFTFSSYAMSWVRQAPGKGLEWVSAISGSGGSTYSADSVKGRFTISRDNSKNTLYLQMNSLRAEDTAVYYCTKPSSYSSSNFYYGMDVWGQGTTVTVSS
VL: DIQMTQSPSSVSASVGDRVTITCRASQGISSWLAWYQQKPGKAPKLLIYTASSLQSGVPSRFSGSGSRTDFTLTISSLQPEDFATYYCQQTNSLPLTFGPGTKVEIK
notes: human IgG4 Fc (H4H)
B4: H4H2296S (antibody, human IgG4, V domains shown)
VH: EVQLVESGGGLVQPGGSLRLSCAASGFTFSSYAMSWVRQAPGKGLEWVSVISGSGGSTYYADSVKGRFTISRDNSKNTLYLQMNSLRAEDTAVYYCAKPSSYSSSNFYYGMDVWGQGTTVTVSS
VL: DIVMTQSPSSVSASVGDRVTITCRASQGISSWLAWYQQKPGKAPKLLIYAASSLRSGVPSRFSGSGSGTDFTLTITSLQPEDFATYYCQHTNSFPFTFGPGTKVEIK
notes: human IgG4 Fc (H4H)
B5: H4H2294S (antibody, human IgG4, V domains shown)
VH: EVQLVESGGGLVQPGGSLRLSCAASGFTFSSYAMSWVRQAPGKGLEWVSVISGSGGSTYYADAVKGRFTISRDNSKHTLYLQMNSLRAEDTAVYYCTKPSSYSSSNFYYGMDVWGQGSTVTVSS
VL: DIQLTQSPSSVSASVGDRVTITCRASQGISSWLAWYQQKPGKAPKLLIYAASSLQSGVPSRFSGSGSGTDFTLTISSLQPEDFATYYCQQTNSFPFPFGPGTKVDIK
notes: human IgG4 Fc (H4H)
B6: H4H2345S (antibody, human IgG4, V domains shown)
VH: EVQLVESGGGLVRPGRSLRLSCAASGFTFDNYAMHWVRQVPGKGLEWVSGITWNSVSLGYADSVKGRFTISRDNAQNSLYLQMNSLRTVDTALYYCAKDRWGGSYYFDFWGQGTLVTVSS
VL: DIVMTQSPSSLSASVGDRVTITCRASQGISNYLAWYQQKPGKVPKLLIYSASTLQSGVPSRFSGSGSGTDFTLTISNLQPEDFATFFCQKYNSAPTFGGGTKVEIK
notes: human IgG4 Fc (H4H)
B7: H4H2342P (antibody, human IgG4, V domains shown)
VH: EVQLLESGGGLVQPGGSLRLSCAASGFTFSTYAMSWVRQAPGKGLEWVSAIRGNGVNTYYGDSMKGRFTISRDNSKDTLYLQMNSLRAEDTAVYYCAKNKWELLVFEYWGQGTLVTVSS
VL: DIQMTQSPSSLSASVGDRVTITCRASQDISNYLAWYQQKPGKVPKLLIYAASTLQSGVPFRFSGSGSGTDFTLTISSLQPEDVATYYCQKYNSAPPFGPGTKVDIK
notes: human IgG4 Fc (H4H)
B8: H4H2212N (antibody, human IgG4, V domains shown)
VH: EVQLLESGGGLVQPGGSLRLSCAASGFTFSSYAMSWVRQGPGKGLEWVSGISGSGGSTYNADSVKGRFTISRDNSKNTLYLQMNSLRAEDTAVYYCAKDSGTYWYYFDYWGQGILVTVSS
VL: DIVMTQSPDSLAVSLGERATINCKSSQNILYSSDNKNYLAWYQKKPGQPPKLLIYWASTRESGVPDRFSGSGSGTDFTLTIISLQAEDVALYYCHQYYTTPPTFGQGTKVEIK
notes: human IgG4 Fc (H4H)
B9: H4H2243N2 (antibody, human IgG4, V domains shown)
VH: QVQLVQSGAEVKKPGASVKVSCKASGYTFTSYGIIWVRQAPGQGLEWMGWISGYNGNTNYAQNLQGRVTMTTDTSTTTAYMELRSLRSDDTAVYYCARWGIATRPYYYYGMDVWGQGTTVTVSS
VL: DIQMTQSPSSLSASVGDRVTITCRASQDITNYLAWFQQKPGKAPKSLIYAASSLQSGVPSKFSGSGSGTDFTLTISSLQPEDFATYYCQQYNSYPPTFGPGTKVDIK
notes: human IgG4 Fc (H4H)

Columns and labels:
[1] = target: T1, human GFRα3 expressed with a C-terminal myc-myc-hexahistidine tag (human, UniProt O60609 32-374, biotinylated (sites not given) in ELISA format 2 and in the Octet cross-competition; not in SPR); assay: Octet cross-competition; biotin-hGFRα3-mmH pre-saturated with first antibody H4H2294S
T1 construct: also called hGFRα3-mmh; hGFRα3-mmH
Protocol: (§1) A cross-competition assay was conducted to assess the ability of select antibodies to compete with one another for binding to human GFRα3 using an Octet RED384 biosensor (Fortebio Inc.). The entire experiment was performed at 25° C. with the flow rate of 1000 rpm in Octet HBST buffer (0.01 M HEPES pH7.4, 0.15M NaCl, 3 mM EDTA, 0.05% v/v Surfactant P20, 0.1 mg/mL BSA). To assess whether 2 antibodies were able to compete with one another for binding to their respective epitopes on biotinylated recombinant human GFRα3 expressed with a C-terminal myc-myc-hexahistidine tag (biotin-hGFRα3-mmH; SEQ ID:370), around ˜1.2 nm of biotin-hGFRα3-mmH was first captured onto streptavidin-coated Octet sensor tips (Fortebio Inc, #18-5019) by submerging the tips for 1 minute into a 10 μg/mL solution of biotin-hGFRα3-mmH. The antigen coated sensor tips were then placed into wells containing 25 μg/mL solution of a first anti-GFRα3 monoclonal antibody for 4 minutes to saturate the biotin-hGFRα3-mmH surface. The sensor tips were then subsequently dipped into wells containing 25 μ/mL solution of a second anti-GFRα3 monoclonal antibody. The sensor tips were washed in Octet HBST buffer in between every step of the experiment. The real-time binding response was monitored during the course of the experiment and the binding response at the end of every step was recorded as shown in FIG. 9. The response of mAb-2 binding to biotin-hGFRα3-mmH pre-complexed with the first antibody was compared and competitive/non-competitive behavior of different anti-GFRα3 monoclonal antibodies was determined.

[2] = target: T1, human GFRα3 expressed with a C-terminal …; assay: Octet cross-competition; biotin-hGFRα3-mmH pre-saturated with first antibody H4H2236N3
Protocol: as §1

[3] = target: T1, human GFRα3 expressed with a C-terminal …; assay: SPR, Ab captured, 25C
Method in brief: (§2)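 Rate constants (ka, kd) came from 1:1 fits of 3-fold analyte dilution series (100–3.7 nM Fc-tagged, 200–7.4 nM mmh-tagged) flowed over antibody captured via anti-IgG on CM5. Buffers were HBS-EP or PBS with 0.05% P20, pH 7.4. KD and half-life were derived from kd/ka and ln2/(60*kd).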

[4] = target: T1, human GFRα3 expressed with a C-terminal …; assay: Octet cross-competition; biotin-hGFRα3-mmH pre-saturated with first antibody H4H2342P
Protocol: as §1

[5] = target: T1, human GFRα3 expressed with a C-terminal …; assay: Octet cross-competition; biotin-hGFRα3-mmH pre-saturated with first antibody H4H2212N
Protocol: as §1

[6] = target: T1, human GFRα3 expressed with a C-terminal …; assay: Octet cross-competition; biotin-hGFRα3-mmH pre-saturated with first antibody H4H2355S
Protocol: as §1

[7] = target: T2, human GFRα3 expressed with a C-terminal mFc tag (human); assay: SPR, Ab captured, 25C
T2 construct: also called hGFRα3-mFc
T2 chain: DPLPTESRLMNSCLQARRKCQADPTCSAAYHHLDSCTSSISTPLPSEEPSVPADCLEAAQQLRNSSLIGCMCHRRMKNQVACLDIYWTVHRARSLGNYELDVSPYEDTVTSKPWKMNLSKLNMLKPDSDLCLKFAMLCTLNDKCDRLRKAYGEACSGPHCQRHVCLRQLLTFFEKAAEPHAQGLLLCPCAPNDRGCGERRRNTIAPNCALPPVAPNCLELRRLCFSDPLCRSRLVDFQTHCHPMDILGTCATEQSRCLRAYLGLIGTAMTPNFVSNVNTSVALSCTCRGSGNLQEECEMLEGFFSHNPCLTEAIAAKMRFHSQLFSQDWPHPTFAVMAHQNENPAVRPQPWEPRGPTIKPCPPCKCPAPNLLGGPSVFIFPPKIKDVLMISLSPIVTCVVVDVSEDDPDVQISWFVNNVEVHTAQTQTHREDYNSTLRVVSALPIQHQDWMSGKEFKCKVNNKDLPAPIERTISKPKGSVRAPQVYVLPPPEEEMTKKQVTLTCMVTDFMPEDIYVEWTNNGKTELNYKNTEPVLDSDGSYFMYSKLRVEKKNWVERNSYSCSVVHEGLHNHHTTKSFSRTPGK
Method in brief: as §2

Binder	binding response of second antibody (nm) [1]	binding response of second antibody (nm) [2]	Kd [3]	koff [3]	kon [3]	t1/2 [3]	binding response of second antibody (nm) [4]	binding response of second antibody (nm) [5]	binding response of second antibody (nm) [6]	Kd [7]	koff [7]	kon [7]	t1/2 [7]
B1	0.05 nm	0 nm	0.253 nM	0.000233 s⁻¹	922000 M⁻¹ s⁻¹	0.833 h	0.2 nm	2.14 nm	0.18 nm				
B2	0.12 nm	0.06 nm	0.393 nM	0.000164 s⁻¹	418000 M⁻¹ s⁻¹	1.17 h	0.45 nm	2.69 nm	0.31 nm	0.00463 nM	4.78e-06 s⁻¹	1.03e+06 M⁻¹ s⁻¹	40.3 h
B3	0.04 nm	0.03 nm	0.54 nM	0.000256 s⁻¹	475000 M⁻¹ s⁻¹	0.75 h	0.31 nm	2.15 nm	0.2 nm	0.00157 nM	1.69e-06 s⁻¹	1.08e+06 M⁻¹ s⁻¹	114 h
B4	0.04 nm	0.02 nm	0.332 nM	0.000187 s⁻¹	563000 M⁻¹ s⁻¹	1.03 h	0.28 nm	2.36 nm	0.18 nm	0.00337 nM	4.17e-06 s⁻¹	1.24e+06 M⁻¹ s⁻¹	46.2 h
B5	0.02 nm	0 nm	0.142 nM	7.99e-05 s⁻¹	563000 M⁻¹ s⁻¹	2.42 h	0.23 nm	2.12 nm	0.16 nm	0.00463 nM	5.63e-06 s⁻¹	1.22e+06 M⁻¹ s⁻¹	34.2 h
B6			29.7 nM	0.00323 s⁻¹	109000 M⁻¹ s⁻¹	0.0667 h				0.0584 nM	3.01e-05 s⁻¹	516000 M⁻¹ s⁻¹	6.4 h
B7	0.01 nm	-0.01 nm	1.1 nM	0.000204 s⁻¹	186000 M⁻¹ s⁻¹	0.95 h	0.06 nm	2.17 nm	0.06 nm	≤ 0.00151 nM	≤ 1e-06 s⁻¹	661000 M⁻¹ s⁻¹	192 h
B8	1.92 nm	1.79 nm					1.76 nm	0.05 nm	1.95 nm				
B9	0.03 nm	0.02 nm	2.92 nM	0.00078 s⁻¹	267000 M⁻¹ s⁻¹	0.25 h	0.11 nm	0.16 nm	0.09 nm				
